Test results taken from patent publication US20260216058A1, “TRACE ELEMENT COMPOSITION, PREPARATION METHOD THEREFOR, AND USE THEREOF” (BEIJING ZANGWEIXINKANG PHARMACEUTICAL R&D CO., LTD., priority 2023, published 2026).

System: Hartley guinea pigs
Assay: Systemic active allergic reaction test in guinea pigs
Assay type: in vivo, guinea pig
Conditions: 40 mg/mL
From the text: Systemic active allergic reaction test in guinea pigs: Hartley guinea pigs, SPF grade, source: Beijing Vital River Laboratory Animal Technology Co., Ltd., animal production license No.: SCXK (JING) 2016-0011, test animal certification No.: No. 110011201110221326, issuer: Beijing Science and Technology Commission, age at the start of administration: 5-6 weeks.
Guinea pigs were sensitized by intraperitoneal injection of the sample of Example 2 and Addaven every other day for three consecutive days. In the allergic reaction test, 0.9% sodium chloride injection (Lot No.: 6B20060706, Shandong Qidu Pharmaceutical Co., Ltd.) was selected as the compatibility solution. Test sample low-dose group was administered with the clinically intended concentration of the test sample solution, and test sample high-dose group was administered with twice the concentration of the test sample solution. The administration volume was 0.5 mL/animal for each group. On the 14th and 21st days after the last sensitization, twice the sensitization dose of the product was intravenously injected for irritation, respectively.
Negative control group: 0.9% sodium chloride injection; […]

## bovine serum albumin
Irritation on the 14th day after the last sensitization
  allergic reactions: strongly positive to extremely strong positive
Irritation on the 21st day after the last sensitization
  allergic reactions: strongly positive to extremely strong positive
